Source: EP1007666B1 (GENENTECH, INC., dated 2005)

Legend:
[1] = target: T1, recombinant soluble rat GDNFRα (rat, UniProt Q62997 25-430, limits assumed); experiment: displaceable equilibrium binding of 125I-rGDNF to recombinant soluble rGDNFRα; Scatchard inset of Fig. 6B
T1 construct: also called rGDNFRα; GFR-alpha-1
T1 sequence (looked up): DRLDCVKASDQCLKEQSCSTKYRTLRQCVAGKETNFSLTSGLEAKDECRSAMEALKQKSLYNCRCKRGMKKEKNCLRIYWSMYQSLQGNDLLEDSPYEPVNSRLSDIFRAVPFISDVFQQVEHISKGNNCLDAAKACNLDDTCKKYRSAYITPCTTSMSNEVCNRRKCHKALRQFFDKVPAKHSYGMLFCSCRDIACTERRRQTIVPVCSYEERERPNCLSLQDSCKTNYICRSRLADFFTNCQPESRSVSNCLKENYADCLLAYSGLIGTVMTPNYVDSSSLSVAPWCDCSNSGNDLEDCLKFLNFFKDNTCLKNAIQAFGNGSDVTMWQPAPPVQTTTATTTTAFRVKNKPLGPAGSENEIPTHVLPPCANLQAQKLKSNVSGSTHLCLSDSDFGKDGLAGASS

[2] = target: T2, rat NTNRα-IgG (soluble rNTNRα, product of pRK-rNTNRα-IgG) (rat); experiment: binding experiments with biotinylated ligand, format not described
T2 construct: Used as conditioned medium of transiently transfected 293 cells; also called soluble rNTNRα protein; rat fusion protein

[3] = target: T2, rat NTNRα-IgG (soluble rNTNRα, product …); experiment: equilibrium binding of 125I-NTN with cold ligand to soluble NTNRα-IgG, protein A Sepharose precipitation, IGOR fit; Scatchard inset of Fig. 6C
[4] = target: T3, human NTNRα-IgG (soluble human NTNRα, product of pRK-hNTNRα-IgG) (human); experiment: equilibrium binding of 125I-NTN with cold ligand to soluble NTNRα-IgG, protein A Sepharose precipitation, IGOR fit (data not shown)
T3 construct: Used as conditioned medium of transiently transfected 293 cells; also called recombinant soluble human NTNRα; hNTNRα fusion

[5] = target: T2, rat NTNRα-IgG (soluble rNTNRα, product …); experiment: equilibrium binding of 125I-NTN with cold ligand to soluble NTNRα-IgG, protein A Sepharose precipitation, IGOR fit

B1: rat GDNF (ligand, UniProt Q07731 78-211, looked up)
chain: SPDKQAAALPRRERNRQAAAASPENSRGKGRRGQRGKNRGCVLTAIHLNVTDLGLGYETKEELIFRYCSGSCEAAETMYDKILKNLSRSRRLTSDKVGQACCRPVAFDDDLSFLDDSLVYHILRKHSAKRCGCI
modifications: 125I: iodinated either on tyrosine by the Bolton Hunter method or on lysine using lactoperoxidase
notes: also called rGDNF
Q: With B1 as the binder, how does the Kd [1] read?
A: Its Kd is 3 pM.

B2: GDNF, species not stated at these places (ligand)
chain: SPDKQAAALPRRERNRQAAAASPENSRGKGRRGQRGKNRGCVLTAIHLNVTDLGLGYETKEELIFRYCSGSCEAAETMYDKILKNLSRSRRLTSDKVGQACCRPVAFDDDLSFLDDSLVYHILRKHSAKRCGCI
modifications: Biotinylated in the paragraph 22 experiment; natural form is a disulfide-linked homodimer
notes: also called biotinylated GDNF
Q: B2 was tested. Which Kd [2] did it give?
A: The Kd was greater than 1000 µM.

B3: mouse Neurturin (ligand, UniProt P97463 96-195, looked up)
chain: PGARPCGLRELEVRVSELGLGYTSDETVLFRYCAGACEAAIRIYDLGLRRLRQRRRVRRERARAHPCCRPTAYEDEVSFLDVHSRYHTLQELSARECACV
modifications: 125I-labelled in the direct binding assays; unlabelled as cold competitor
notes: also called mouse NTN; mNTN
Q: Which results are given for B3?
A: Kd [3]: ~0.01 nM; Kd [4]: ~0.01 nM

B4: human Neurturin (ligand, UniProt Q99748 96-197, looked up)
chain: ARLGARPCGLRELEVRVSELGLGYASDETVLFRYCAGACEAAARVYDLGLRRLRQRRRLRRERVRAQPCCRPTAYEDEVSFLDAHSRYHTVHELSARECACV
modifications: 125I-labelled in the direct binding assays; unlabelled as cold competitor
notes: also called human NTN; hNTN
Q: For B4, which Kd [5] is on record?
A: Its Kd is roughly 0.01 nM.

Q: What about the Kd [4] of the same binder?
A: Its Kd is roughly 0.01 nM.
